Source: the supplement of paper PMC10567573

B1: WEE1 (parent)
chain: FLGSSFSPVRCGGPGDASPRGCGA

Variants of: B1
Test: protein stability index of a GFP-peptide fusion (GPS, HEK-293T) (PSI 1-6); higher = more stable
Settings: c terminus: a fixed tail appended
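Also: lentivirally expressed fusions sorted by FACS into six bins by GFP to DsRed ratio, PSI derived from sequencing read proportions per bin multiplied by bin number.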

Variant | protein stability index
FLGSSFSPVRCGGPGDASPLGCGA | 2.37
FLGSSFSPVRCGGPGDASPVGCGA | 1.79
FLGSSFSPVRCGGPGDASPAGCGA | 2.27
FLGSSFSPVRCGGPGDASPKGCGA | 1.62
FLGSSFSPVRCGGPGDASPDGCGA | 2.17
FLGSSFSPVRCGGPGDASPGGCGA | 1.36
FLGSSFSPVRCGGPGDASPIGCGA | 1.23
FLGSSFSPVRCGGPGDASPPGCGA | 2.14
FLGSSFSPVRCGGPGDASPSGCGA | 1.55
FLGSSFSPVRCGGPGDASPTGCGA | 1.8
FLGSSFSPVRCGGPGDASPQGCGA | 2.12
FLGSSFSPVRCGGPGDASPYGCGA | 3.14
FLGSSFSPVRCGGPGDASPEGCGA | 2.28
FLGSSFSPVRCGGPGDASPWGCGA | 2.19
FLGSSFSPVRCGGPGDASPNGCGA | 2
FLGSSFSPVRCGGPGDASPMGCGA | 1.57
FLGSSFSPVRCGGPGDASPHGCGA | 1.33
FLGSSFSPVRCGGPGDASPRGKGA | 2.17
FLGSSFSPVRCGGPGDASPRGTGA | 2.47
FLGSSFSPVRCGGPGDASPRGEGA | 1.95
FLGSSFSPVRCGGPGDASPRGYGA | 2.1
FLGSSFSPVRCGGPGDASPRGWGA | 2.96
FLGSSFSPVRCGGPGDASPRGGGA | 2.13
FLGSSFSPVRCGGPGDASPRGRGA | 2.27

Variant | protein stability index
FLGSSFSPVRCGGPGDASPRGMGA | 1.87
FLGSSFSPVRCGGPGDASPRGHGA | 2.94
FLGSSFSPVRCGGPGDASPRGNGA | 1.8
FLGSSFSPVRCGGPGDASPRGVGA | 1.73
FLGSSFSPVRCGGPGDASPRGLGA | 1.75
FLGSSFSPVRCGGPGDASPRGSGA | 2.73
FLGSSFSPVRCGGPGDASPRGAGA | 1.88
FLGSSFSPVRCGGPGDASPRGDGA | 1.61
FLGSSFSPVRCGGPGDASPRGPGA | 1.59
FLGSSFSPVRCGGPGDASPRGFGA | 2.48
FLGSSFSPVRCGGPGDASPRGQGA | 1.73
FLGSSFSPVRCGGPGDASPRGIGA | 1.58
FLGSSFSPVRCGGPGDASPRGCTA | 1.7
FLGSSFSPVRCGGPGDASPRGCCA | 2.64
FLGSSFSPVRCGGPGDASPRGCDA | 2.22
FLGSSFSPVRCGGPGDASPRGCSA | 1.82
FLGSSFSPVRCGGPGDASPRGCYA | 1.4
FLGSSFSPVRCGGPGDASPRGCQA | 1.73
FLGSSFSPVRCGGPGDASPRGCPA | 2.06
FLGSSFSPVRCGGPGDASPRGCLA | 1.09
FLGSSFSPVRCGGPGDASPRGCKA | 1.71
FLGSSFSPVRCGGPGDASPRGCRA | 1.79
FLGSSFSPVRCGGPGDASPRGCMA | 1.63
FLGSSFSPVRCGGPGDASPRGCHA | 3.02

Variant | protein stability index
FLGSSFSPVRCGGPGDASPRGCFA | 2.37
FLGSSFSPVRCGGPGDASPRGCVA | 1.73
FLGSSFSPVRCGGPGDASPRGCNA | 1.66
FLGSSFSPVRCGGPGDASPRGCAA | 2.4
FLGSSFSPVRCGGPGDASPRGCEA | 1.75
FLGSSFSPVRCGGPGDASPRGCIA | 2.35
FLGSSFSPVRCGGPGDASPRGCGC | 2.6
FLGSSFSPVRCGGPGDASPRGCGF | 2.42
FLGSSFSPVRCGGPGDASPRGCGG | 1.75
FLGSSFSPVRCGGPGDASPRGCGP | 1.58
FLGSSFSPVRCGGPGDASPRGCGK | 2.17
FLGSSFSPVRCGGPGDASPRGCGT | 2.01
FLGSSFSPVRCGGPGDASPRGCGV | 1.6
FLGSSFSPVRCGGPGDASPRGCGN | 2.28
FLGSSFSPVRCGGPGDASPRGCGD | 2.27
FLGSSFSPVRCGGPGDASPRGCGE | 1.88
FLGSSFSPVRCGGPGDASPRGCGI | 1.42
FLGSSFSPVRCGGPGDASPRGCGH | 1.52
FLGSSFSPVRCGGPGDASPRGCGS | 1.58
FLGSSFSPVRCGGPGDASPRGCGR | 1.98
FLGSSFSPVRCGGPGDASPRGCGQ | 1.52
FLGSSFSPVRCGGPGDASPRGCGY | 1.75
FLGSSFSPVRCGGPGDASPRGCGW | 1.37
FLGSSFSPVRCGGPGDASPRGCGL | 1.82

Variant | protein stability index
FLGSSFSPVRCGGPGDASPRGCGM | 1.02
FLGSSFSPVRCGGPGDKSPRGCGA | 1.53
FLGSSFSPVRCGGPGDESPRGCGA | 1.95
FLGSSFSPVRCGGPGDISPRGCGA | 1.87
FLGSSFSPVRCGGPGDLSPRGCGA | 1.78
FLGSSFSPVRCGGPGDGSPRGCGA | 2.07
FLGSSFSPVRCGGPGDQSPRGCGA | 1.53
FLGSSFSPVRCGGPGDMSPRGCGA | 1.56
FLGSSFSPVRCGGPGDHSPRGCGA | 1.8
FLGSSFSPVRCGGPGDPSPRGCGA | 2.31
FLGSSFSPVRCGGPGDYSPRGCGA | 1.95
FLGSSFSPVRCGGPGDSSPRGCGA | 1.39
FLGSSFSPVRCGGPGDFSPRGCGA | 1.54
FLGSSFSPVRCGGPGDRSPRGCGA | 2.21
FLGSSFSPVRCGGPGDNSPRGCGA | 1.99
FLGSSFSPVRCGGPGDWSPRGCGA | 2.29
FLGSSFSPVRCGGPGDTSPRGCGA | 1.4
FLGSSFSPVRCGGPGDVSPRGCGA | 1.47
FLGSSFSPVRCGGPGDASPRTCGA | 2.08
FLGSSFSPVRCGGPGDASPRWCGA | 1.38
FLGSSFSPVRCGGPGDASPRHCGA | 1.87
FLGSSFSPVRCGGPGDASPRFCGA | 1.64
